Consider 4 variants from IntAct's records for PubMed 10102273.

B1: Forkhead box protein O3 (Homo sapiens), O43524 (parent)
chain: MAEAPASPAPLSPLEVELDPEFEPQSRPRSCTWPLQRPELQASPAKPSGETAADSMIPEEEDDEDDEDGGGRAGSAMAIGGGGGSGTLGSGLLLEDSARVLAPGGQDPGSGPATAAGGLSGGTQALLQPQQPLPPPQPGAAGGSGQPRKCSSRRNAWGNLSYADLITRAIESSPDKRLTLSQIYEWMVRCVPYFKDKGDSNSSAGWKNSIRHNLSLHSRFMRVQNEGTGKSSWWIINPDGGKSGKAPRRRAVSMDNSNKYTKSRGRAAKKKAALQTAPESADDSPSQLSKWPGSPTSRSSDELDAWTDFRSRTNSNASTVSGRLSPIMASTELDEVQDDDAPLSPMLYSSSASLSPSVSKPCTVELPRLTDMAGTMNLNDGLTENLMDDLLDNITLPPSQPSPTGGLMQRSSSFPYTTKGSGLGSPTSSFNSTVFGPSSLNSLRQSPMQTIQENKPATFSSMSHYGNQTLQDLLTSDSLSHSDVMMTQSDPLMSQASTAVSAQNSRRNVMLRNDPMMSFAAQPNQGSLVNQNLLHHQHQTQGALGGSRALSNSVSNMGLSESSSLGSAKHQQQSPVSQSMQTLSDSLSGSSLYSTSANLPVMGHEKFPSDLDLDMFNGSLECDMESIIRSELMDADGLDFNFDSLISTQNVVGLNVGNFTGAKQASSQSWVPG

Variants of B1 are the subject of the first assay. To be noted: with 1433z_human YWHAZ.
With T32A;S253A, the “effect of a mutation on the interaction” value was “disrupting interaction strength”. On to T32A, for which the “effect of a mutation on the interaction” value is listed as “decreasing interaction strength”. Turning to S315A, the “effect of a mutation on the interaction” value was “with no effect”. Regarding S253A, the “effect of a mutation on the interaction” value is “decreasing interaction strength”.

A further assay covers variants of B1. The note with it: with akt1_human AKT1, P31749.
Sequence of akt1_human AKT1, P31749 (P31749 whole entry): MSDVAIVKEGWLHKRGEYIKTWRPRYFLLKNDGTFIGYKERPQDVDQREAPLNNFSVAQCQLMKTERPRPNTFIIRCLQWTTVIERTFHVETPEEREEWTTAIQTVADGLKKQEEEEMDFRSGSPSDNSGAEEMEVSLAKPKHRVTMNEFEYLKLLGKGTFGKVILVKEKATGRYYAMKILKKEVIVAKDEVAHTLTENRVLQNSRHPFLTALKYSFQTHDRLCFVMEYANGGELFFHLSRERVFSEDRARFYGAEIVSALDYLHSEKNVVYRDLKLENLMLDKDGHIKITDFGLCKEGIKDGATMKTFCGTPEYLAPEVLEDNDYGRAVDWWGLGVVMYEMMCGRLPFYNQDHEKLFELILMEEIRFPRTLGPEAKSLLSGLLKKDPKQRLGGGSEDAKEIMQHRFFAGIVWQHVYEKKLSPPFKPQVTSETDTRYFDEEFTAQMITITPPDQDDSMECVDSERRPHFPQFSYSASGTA
With S315A, the “effect of a mutation on the interaction” value was “with no effect”.
